Data published in patent publication US7871610B2, “Antibodies to Tie1 ectodomain” (Dyax Corp., priority 2003, dated 2011).
“Also recorded” adds a separate entry of the source. One block for each molecule: values may come before it.

Key:
[1] = test system: SW-480 (colorectal cancer) cells; assay: SW-480 colorectal cancer xenograft in nu/nu mice; assay type: in vivo, mouse; settings: average per group
Procedure: Mice (nu/nu) were implanted subcutaneously with 5×10^6 SW-480 (colorectal cancer) cells. After 12 days, when tumors reached approximately 100-200 mg, the mice were separated into 5 groups and treated with the following agents (or left untreated): • 1—Untreated • 2—Vehicle (PBS) • 3—Cisplatin (4 mg/kg/, IV, q2d×5 times) • 4—A2-SV (negative control antibody @ 10 mg/kg, IP, q2d×14 times) • 5—DX-2220 (anti-Tie-1 antibody @ 10 mg/kg, IP, q2d×14 times)
Throughout the study, the length (L) and width (W) of any tumors that developed were measured in millimeters using calibrated vernier calipers, where L is the longer of the two dimensions. When applicable, tumor weight (M) in milligrams was calculated by using the formula associated with a prolate ellipsoid: M=(L×W^2)/2. […] A2-SV is an isotype matched (IgG1) negative control antibody that binds strepavidin.

[2] = test system: bFGF-induced angiogenesis; assay: […] plug assay, bFGF-induced angiogenesis in NMRI nu/nu mice; assay type: in vivo, mouse; settings: first assay, day 7; bFGF 80 ng/ml; antibody 10 μg/ml in plug; E3 = germlined variant, IgG4
Procedure: The germlined variant of the E3 IgG antibody was evaluated in an in vivo assay for angiogenesis induced by bFGF in […]™ plugs. Growth factor reduced […]™ (BD Biosciences, catalog # 354230) was supplemented with 80 ng/ml of bFGF (R&D Systems, catalog #234-FSE). The A2-SV or an IgG4 E3 antibody (10 μg/ml) or PBS was injected subcutaneously into the abdominal area of NMRI nu/nu mice (150 μl of Matrigel/plug).
In the first assay, two mice were injected with […]™ supplemented with bFGF and soluble VEGFR-1 (10 μg/ml) as a positive control for an angiogenic inhibitor. At day 7 post-implantation mice were anesthetized and perfused through heart with 4% paraformaldehyde (PFA) in phosphate buffered saline (PBS). […]™ plugs and a piece of liver were removed and embedded in paraffin. Sections were cut and stained with hematoxylin and eosin (H&E).
In a second assay, mice were treated as described above, and then anesthetized eight days post-implantation and injected with fluorescein-conjugated tomato (lycopersicon esculentum) lectin (100 μg in 200 μl of PBS; Vector, catalog #FL-1171) into the tail vein. After five min circulation the animals were perfused through the heart with 10 ml of PBS followed by 10 ml of 4% PFA in PBS. […]™ plugs and pieces of kidney and liver were removed and frozen in OCT (Tissue-Tek). Nuclei were visualized on sections by using […]® mounting medium containing DAPI (Vector) and analyzed under fluorescence microscopy.

[3] = molecular target: T1, Tie1-EpoR chimeric receptor (UniProt P14753+P35590); assay: Ba/F3 bioassay (Tie1/EpoR chimeric BaF3 cell assay), MTT viability; assay type: cell-based, human; settings: 100 ng/ml E3 IgG together with 100 (1:1) or 500 (1:5) ng/ml of the other antibody
T1 construct: the PCR amplified extracellular part of human Tie1 (bp 37-2316 of X60975); expressed in transfected cells
T1 sequence (P35590+P14753 with tags, fused parts or gaps): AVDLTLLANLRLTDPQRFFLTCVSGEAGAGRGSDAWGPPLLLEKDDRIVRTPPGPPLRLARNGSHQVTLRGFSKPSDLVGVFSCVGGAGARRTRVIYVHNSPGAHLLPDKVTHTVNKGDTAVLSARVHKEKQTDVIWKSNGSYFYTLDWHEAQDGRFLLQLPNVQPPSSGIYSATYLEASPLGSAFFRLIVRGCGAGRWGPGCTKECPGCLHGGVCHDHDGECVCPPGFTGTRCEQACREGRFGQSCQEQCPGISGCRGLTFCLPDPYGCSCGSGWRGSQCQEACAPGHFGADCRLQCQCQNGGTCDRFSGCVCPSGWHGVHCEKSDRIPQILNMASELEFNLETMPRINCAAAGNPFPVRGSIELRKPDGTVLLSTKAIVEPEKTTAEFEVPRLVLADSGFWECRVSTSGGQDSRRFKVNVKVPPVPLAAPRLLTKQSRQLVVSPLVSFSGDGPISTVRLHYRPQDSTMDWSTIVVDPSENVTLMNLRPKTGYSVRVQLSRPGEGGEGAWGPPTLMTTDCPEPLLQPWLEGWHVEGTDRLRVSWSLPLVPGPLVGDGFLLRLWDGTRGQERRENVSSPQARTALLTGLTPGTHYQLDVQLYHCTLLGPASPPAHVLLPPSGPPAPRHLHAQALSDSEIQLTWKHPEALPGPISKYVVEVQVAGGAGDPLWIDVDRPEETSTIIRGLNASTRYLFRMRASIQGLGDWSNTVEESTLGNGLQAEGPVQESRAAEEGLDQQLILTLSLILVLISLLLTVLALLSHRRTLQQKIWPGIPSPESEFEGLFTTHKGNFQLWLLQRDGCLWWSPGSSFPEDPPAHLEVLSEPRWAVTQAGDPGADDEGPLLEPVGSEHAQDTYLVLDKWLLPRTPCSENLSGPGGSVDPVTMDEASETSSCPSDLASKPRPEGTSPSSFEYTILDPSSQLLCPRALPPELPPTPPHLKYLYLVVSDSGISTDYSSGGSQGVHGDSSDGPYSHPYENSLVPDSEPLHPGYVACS
From the text: To generate Tie1-EpoR expressing Ba/F3 cells for the bioassay, Ba/F3 pre-B cells were stably transfected with a nucleic acid that expresses chimeric receptor containing the extracellular domain of human Tie1 fused with the transmembrane and cytoplasmic domains of the mouse erythropoietin receptor. The nucleic acid used was a Tie1-EpoR chimeric cDNA in a pEF-BOS expression vector. The nucleic acid encoding the chimeric receptor was constructed by cloning the PCR amplified extracellular part of human Tie1 (bp 37-2316 of X60975) as EcoRI-BglII fragment into mEpoR-pcDNA vector. The cDNA encoding for the chimeric receptor consisting of the extracellular part of Tie1 fused with the transmembrane and intracellular domains of EpoR was subcloned into the pEF-BOS expression vector. Vector was linearized and co-transfected into Ba/F3 cells with pcDNA3.1(+) Zeo vector (Invitrogen). Stable cell pools were generated by selection with 250 μg/ml Zeocin. The expression of Tie1/EpoR fusion protein in several clones was analyzed by Western blotting with an antibody against EpoR.
To perform the assays, Ba/F3 cells expressing the Tie 1-EpoR chimera were split in 96-well microtiter plates at 50 000 cells/well in the presence of the indicated concentrations of anti-Tie1 antibodies. As controls, Zeocin resistant pools not expressing the Tie1-EpoR were used. After 48 h, the viability of the cells was determined by adding MTT (3-(4,5-dimethylthiazol-2-yl)-2,5-diphenyl tetrazolium bromide (Sigma), 0.5 mg/ml), followed by further 2 h of culture, addition of an equal volume of cell lysis solution (10% SDS, 10 mM HCl) and incubation overnight at 37° C. Absorbance was measured at 540 nm.
Although no ligand for Tie1 has been identified, we used the following efficient screening method for Tie1-binding proteins. Interleukin-3 dependent pre-B-lymphocyte (Ba/F3) cells were transfected with a construct that expresses a Tie1-EpoR fusion protein. Since Ba/F3 cells are IL-3 dependent, they die unless IL-3 is provided. However, Tie-EpoR receptor expressing Ba/F3 cells can survive and proliferate if the medium contains a Tie1-binding protein, either a natural ligand or an artificial mimetic. Cell survival can be quantitated, e.g., by colorimetric MTT-assay, which measures mitochondrial activity.

Tie1 = Tie1 (Homo sapiens, UniProt P35590); assay: Immunohistochemistry of matched human tumor and normal tissue sections; parameters: from tissue; host or cells: fresh frozen normal and tumor tissue (e.g. lung, kidney, skin, breast); settings: 10 μg/ml, fresh frozen tissue
Procedure: The Tie-1 antibodies were biotinylated using the EZ-link Sulfo-NHS-SS-Biotin (Pierce, Cat. 21331). For Tie-1/Fc and Tie-1-His, the reaction was performed for 2 hours on ice in 50 mM sodium carbonate buffer, pH 9.6, in the presence of a 5-fold molar excess of biotinylating agent. For the antibodies, the reaction was performed for 2 hours on ice in PBS, in the presence of a 15-fold molar excess of EZ-link Sulfo-NHS-SS-Biotin. The reaction was stopped by the addition of Tris-HCl, pH 7.5 (50 mM final concentration) followed by a 1-hour incubation on ice. Samples were then dialyzed against PBS.
Various normal and tumor tissue sections were stained with biotinylated antibodies. A mouse monoclonal anti-Tie1 antibody (7e8) (Alitalo laboratory, University of Helsinki) was used as a positive control. Sections without primary antibody served as negative control. All samples were fresh frozen tissues and staining was performed with the TSA-kit (Perkin-Elmer Life Sciences). After acetone fixation (10-20 min, −20° C.) the slides were treated with 0.73% H2O2 for 10 min to reduce endogenous peroxidase activity followed by blocking for 30 min with TNB buffer. Sections ([…] thick) were incubated with primary antibodies (10 μg/ml) overnight at 4° C. Sections with the mouse monoclonal anti-tie1 antibody (7e8) were treated with biotinylated anti-mouse antibodies (VectaStain) before the addition of streptavidin-HRP. Signal was amplified by using a TSA kit and the visualized by AEC (235 ml NaAc, 15 ml AEC (stock solution: 1600 mg 3-amino-9-ethyl-carbazole and 480 ml N-dimethylformamide), 250 μl H2O2).

Sequence of Tie1 (P35590 22-1138): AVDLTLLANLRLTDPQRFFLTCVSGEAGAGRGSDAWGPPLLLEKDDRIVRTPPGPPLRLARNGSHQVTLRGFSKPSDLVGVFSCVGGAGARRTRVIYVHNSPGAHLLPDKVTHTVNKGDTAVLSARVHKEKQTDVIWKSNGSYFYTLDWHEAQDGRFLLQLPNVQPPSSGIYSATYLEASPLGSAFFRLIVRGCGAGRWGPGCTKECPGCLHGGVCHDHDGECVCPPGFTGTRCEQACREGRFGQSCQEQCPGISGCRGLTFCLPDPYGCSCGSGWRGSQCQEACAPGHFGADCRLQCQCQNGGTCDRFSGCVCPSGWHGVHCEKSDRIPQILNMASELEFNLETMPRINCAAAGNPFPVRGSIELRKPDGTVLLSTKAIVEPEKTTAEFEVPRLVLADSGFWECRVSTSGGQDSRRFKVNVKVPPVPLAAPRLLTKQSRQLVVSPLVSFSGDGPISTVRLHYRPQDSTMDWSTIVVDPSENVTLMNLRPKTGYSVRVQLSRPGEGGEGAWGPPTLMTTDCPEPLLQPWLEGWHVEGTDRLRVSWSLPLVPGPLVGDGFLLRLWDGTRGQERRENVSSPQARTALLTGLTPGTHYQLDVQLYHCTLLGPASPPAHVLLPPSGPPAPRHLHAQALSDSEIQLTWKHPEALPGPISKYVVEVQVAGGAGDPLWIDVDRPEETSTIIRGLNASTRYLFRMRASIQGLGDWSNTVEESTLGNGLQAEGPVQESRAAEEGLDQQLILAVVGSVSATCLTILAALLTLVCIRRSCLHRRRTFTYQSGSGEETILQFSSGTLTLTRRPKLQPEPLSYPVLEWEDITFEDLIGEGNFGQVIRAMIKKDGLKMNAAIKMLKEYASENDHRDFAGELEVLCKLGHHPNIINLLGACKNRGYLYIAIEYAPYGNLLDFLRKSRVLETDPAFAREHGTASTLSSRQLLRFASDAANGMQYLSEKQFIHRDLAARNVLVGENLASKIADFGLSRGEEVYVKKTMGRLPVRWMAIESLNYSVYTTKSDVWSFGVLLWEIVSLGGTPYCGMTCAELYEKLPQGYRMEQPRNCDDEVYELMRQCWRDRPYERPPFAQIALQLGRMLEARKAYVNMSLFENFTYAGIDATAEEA

Molecule: N.N.[Cl][Pt][Cl] [cisplatin, reference compound]
Tumor Weight ([1]; 5 days after cell injection (before treatment start at day 12)): 48 mg
Tumor Weight ([1]; 9 days after cell injection (before treatment start at day 12)): 69 mg
Tumor Weight ([1]; 12 days after cell injection (treatment start)): 137 mg
Tumor Weight ([1]; 15 days after cell injection): 185 mg
Tumor Weight ([1]; 19 days after cell injection): 207 mg
Tumor Weight ([1]; 22 days after cell injection): 235 mg
Tumor Weight ([1]; 26 days after cell injection): 310 mg
Tumor Weight ([1]; 28 days after cell injection): 363 mg

B1: soluble VEGFR1: soluble VEGFR-1 (10 μg/ml), positive control for an angiogenic inhibitor (protein, UniProt P17948 27-758, looked up)
extracellular domain: SKLKDPELSLKGTQHIMQAGQTLHLQCRGEAAHKWSLPEMVSKESERLSITKSACGRNGKQFCSTLTLNTAQANHTGFYSCKYLAVPTSKKKETESAIYIFISDTGRPFVEMYSEIPEIIHMTEGRELVIPCRVTSPNITVTLKKFPLDTLIPDGKRIIWDSRKGFIISNATYKEIGLLTCEATVNGHLYKTNYLTHRQTNTIIDVQISTPRPVKLLRGHTLVLNCTATTPLNTRVQMTWSYPDEKNKRASVRRRIDQSNSHANIFYSVLTIDKMQNKDKGLYTCRVRSGPSFKSVNTSVHIYDKAFITVKHRKQQVLETVAGKRSYRLSMKVKAFPSPEVVWLKDGLPATEKSARYLTRGYSLIIKDVTEEDAGNYTILLSIKQSNVFKNLTATLIVNVKPQIYEKAVSSFPDPALYPLGSRQILTCTAYGIPQPTIKWFWHPCNHNHSEARCDFCSNNEESFILDADSNMGNRIESITQRMAIIEGKNKMASTLVVADSRISGIYICIASNKVGTVGRNISFYITDVPNGFHVNLEKMPTEGEDLKLSCTVNKFLYRDVTWILLRTVNNRTMHYSISKQKMAITKEHSITLNLTIMNVSLQDSGTYACRARNVYTGEEILQKKEITIRDQEAPYLLRNLSDHTVAISSSTTLDCHANGVPEPQITWFKNNHKIQQEPGIILGPGSSTLFIERVTEEDEGVYHCKATNQKGSVESSAYLTVQGTSDKSNLE
modifications: extracellular domain
vessel-like structures in MATRIGEL plugs (H&E staining) [2]: neither modification of the matrix nor organization of the cells

staining of lung carcinoma (Tie1): stained structures other than vessels
staining of normal lung (large veins) (Tie1): faint staining
staining of normal skin (Tie1): stained blood vessels very faintly
staining of veins and capillaries of mammary tissue (breast) (Tie1): stained those structures rather faintly
B2: D11: anti-Tie1 antibody; VH SEQ ID NO:84, VL SEQ ID NO:86 (antibody, V domains shown)
VH: EVQLLESGGGLVQPGGSLRLSCAASGFTFSGYAMWWVRQAPGKGLEWVSSISPSGGATAYADSVKGRFTISRDNSKNTLYLQMNSLRAEDTAVYYCARDAGSYYWGWFDPWGQGTLVTVSSASTKGPSVFP
VL: HSAQDIQMTQSPATLSLSPGERATLSCRASQSISSYLAWYQQKPGQPPRLLIYDASSRVTGIPARFSGSGFGTDFTLTISSLEPEDFAVYYCLQRSSWPRTFGQGTKLEIK
modifications: Synthetically generated peptide
effect on the survival effect of E3 IgG in Tie1-EpoR Ba/F3 assay [3]: completely blocked the viability; also recorded: blocked completely the survival effect of E3 IgG; also recorded: counteract the agonistic activity of E3
staining of breast carcinoma (Tie1): stained also other structures in addition to vessels
staining of kidney (Tie1): stained kidney tubules in addition to the vessels
staining of melanoma tissue (Tie1): also stained other surrounding structures
